# Results as given in article PMC3583661 (Molecular Biology of the Cell, 2013).
# B1: Slk19 (recombinant; Slk19-HA-His and Slk19-Myc-His) (natural protein, budding yeast, UniProt Q08581 1-821, looked up)
# chain: MNEVPTTPVRLILGQAQQREQNSENCSQERNPRTFNSEPDSSFNSPGSSQFVIHPHEPLEKEKDEKQDLDRSIDYGRSSALNNKNNANPLENIDINKMFDDKKSDSGTNDDKGGASTSDKHVLALNYSPIRVEMNSSEKRSDKNVDVDENDKEGSHINKKLKLQLESVPDLKQSSTKDIINDKEEIMSSPMAIDMIETNISPNKFIINDGVERNDSFNINTDTLKLENDINEKQQEEDFIKSNSNNVVNIDNAYKEKEDEENDITNSHINRLTPLYETSARESNSNEEGRNDYDDDNQLDIRHDNFQIVAKRNEELTDQIYHLNQMLNSLISKNESLSFQYEKLNKNHQLLIDLTNEKLDKLNTERESDIAKVEKFKKRIKELNTEIKVLNSNQKILQEKFDASITEVNHIKGEHENTVNTLQQNEKILNDKNVELENMKAELKGNNDKLSEYETTLNDLNSRIVQLNDKIESTDIVLKSKENELDNLKLSLKETLSISKDFNDSDLIGQINELISTKNNLQQKMDDLNNLNDDNLKVVQDKLIKNEETLKLKEAEIDSLNSEMDELKKQITSKDDEFKMWQSKYETVEDEAKIRNAEVTELNGDIEDLKESKLHLEETITELENKVHKLENECELEKQKFEKTSLELESLQLKNSNIQAEHIKELENLHENLISLQNELKISSDRITTLTKENEVLMEQNNNNNNSVTLSNDQKDRDDEKIKSLGKQVQDWKEKYEAKEKDTNKRLKLLAEDLYIQYSSKHEQKVKLLKKGYENKYQNKFDQLNLENKTLSEEIEQLNKQLSSEREEKQELLKLLENEKK
# Target: the molecule itself
# Assay: co-IP
protein,measurement,value
B1,binding result,binds
